{
  "source": "patent US20220372155A1",
  "about": "(LYVGEN BIOPHARMA, published 2022)",
  "binders": {"B1": {"name": "Ly807 (bispecific antibody, human IgG1, kappa)", "heavy": "QVQLQQPGAELVKPGASVKLSCKASGYTFTSYWMHWVKQRPGQGLEWIGMIHPNSGGTNYNEKFKGKGTLTVDKSSSTAYMQLSSLTSDDSAVYYCVTSQATWFAYWGQGTLVTVSAASTKGPSVFPLAPSSKSTSGGTAALGCLVKDYFPEPVTVSWNSGALTSGVHTFPAVLQSSGLYSLSSVVTVPSSSLGTQTYICNVNHKPSNTKVDKKVEPKSCDKTHTCPPCPAPELLGPSVFLFPPKPKDTLMISRTPEVTCVVVDVSHEDPEVKFNWYVDGVEVHNAKTKPREEQYNSTYRVVSVLTVLHQDWLNGKEYKCKVSNKALPAPIEKTISKAKGQPREPQVYTLPPSREEMTKNQVSLTCLVKGFYPSDIAVEWESNGQPENNYKTTPPVLDSDGSFFLYSKLTVDKSRWQQGNVFSCSVMHEALHNHYTQKSLSLSPG", "light": "ENVLTQSPAIMSVSPGEKVTMTCRASSSVSSSYLHWYQQKSGASPKFWIYSTSNLASGVPARFSGSGSGTSYSLTISSVEAEDAATYYCQHYSGYPLTFGAGTKLELRRTVAAPSVFIFPPSDEQLKSGTASVVCLLNNFYPREAKVQWKVDNALQSGNSQESVTEQDSKDSTYSLSSTLTLSKADYEKHKVYACEVTHQGLSSPVTKSFNRGECGGGGSGGGGSGGGGSGGGGSDIQMTQSPSSLSASVGDRVTITCLASEDISNDLAWYQQKPGKAPKLLIYFVDRLLDGVPSRFSGSGSGTDFTLTISSLQPEDFATYYCQQSYKYPPTFGQGTKLEIKGGGGSGGGGSGGGGSGGGGSEVQLVESGGGLVQPGGSLRLSCAASGFTFTNYGLHWVRQAPGKGLEWVSSISPSGGVTYYRDSVKGRFTISRDNSKNTLYLQMNSLRAEDTAVYYCAKPFLGWGGANWIAHWGQGTLVTVSS", "notes": "Ly387 HC (IgG1 mutated Fc) + Ly387 LC-TM559 scFv VL-VH"}, "B2": {"name": "Ly808 (bispecific antibody, human IgG1, kappa)", "heavy": "QVQLQQPGAELVKPGASVKLSCKASGYTFTSYWMHWVKQRPGQGLEWIGMIHPNSGGTNYNEKFKGKGTLTVDKSSSTAYMQLSSLTSDDSAVYYCVTSQATWFAYWGQGTLVTVSAASTKGPSVFPLAPSSKSTSGGTAALGCLVKDYFPEPVTVSWNSGALTSGVHTFPAVLQSSGLYSLSSVVTVPSSSLGTQTYICNVNHKPSNTKVDKKVEPKSCDKTHTCPPCPAPELLGPSVFLFPPKPKDTLMISRTPEVTCVVVDVSHEDPEVKFNWYVDGVEVHNAKTKPREEQYNSTYRVVSVLTVLHQDWLNGKEYKCKVSNKALPAPIEKTISKAKGQPREPQVYTLPPSREEMTKNQVSLTCLVKGFYPSDIAVEWESNGQPENNYKTTPPVLDSDGSFFLYSKLTVDKSRWQQGNVFSCSVMHEALHNHYTQKSLSLSPG", "light": "ENVLTQSPAIMSVSPGEKVTMTCRASSSVSSSYLHWYQQKSGASPKFWIYSTSNLASGVPARFSGSGSGTSYSLTISSVEAEDAATYYCQHYSGYPLTFGAGTKLELRRTVAAPSVFIFPPSDEQLKSGTASVVCLLNNFYPREAKVQWKVDNALQSGNSQESVTEQDSKDSTYSLSSTLTLSKADYEKHKVYACEVTHQGLSSPVTKSFNRGECGGGGSGGGGSGGGGSGGGGSEVQLVESGGGLVQPGGSLRLSCAASGFTFTNYGLHWVRQAPGKGLEWVSSISPSGGVTYYRDSVKGRFTISRDNSKNTLYLQMNSLRAEDTAVYYCAKPFLGWGGANWIAHWGQGTLVTVSSGGGGSGGGGSGGGGSGGGGSDIQMTQSPSSLSASVGDRVTITCLASEDISNDLAWYQQKPGKAPKLLIYFVDRLLDGVPSRFSGSGSGTDFTLTISSLQPEDFATYYCQQSYKYPPTFGQGTKLEIK", "notes": "Ly387 HC (IgG1 mutated Fc) + Ly387 LC-TM559 scFv VH-VL"}, "B3": {"name": "Ly809 (bispecific antibody, human IgG1, kappa)", "heavy": "not shown", "light": "QIVLSQSPAILSTSPGEKVTMTCRASSSVSYMHWYQQKPGSSPKPWIYATSNLASGVPARFSGSRSGTSYSLTISRVEAEDAATYYCQQWSSNTLTFGGGTKLELKRTVAAPSVFIFPPSDEQLKSGTASVVCLLNNFYPREAKVQWKVDNALQSGNSQESVTEQDSKDSTYSLSSTLTLSKADYEKHKVYACEVTHQGLSSPVTKSFNRGEC", "notes": "Ly383 HC (IgG1 mutated Fc)-Ly253 scFv VL-VH + Ly383 LC"}, "B4": {"name": "Ly810 (bispecific antibody, human IgG1, kappa)", "heavy": "not shown", "light": "QIVLSQSPAILSTSPGEKVTMTCRASSSVSYMHWYQQKPGSSPKPWIYATSNLASGVPARFSGSRSGTSYSLTISRVEAEDAATYYCQQWSSNTLTFGGGTKLELKRTVAAPSVFIFPPSDEQLKSGTASVVCLLNNFYPREAKVQWKVDNALQSGNSQESVTEQDSKDSTYSLSSTLTLSKADYEKHKVYACEVTHQGLSSPVTKSFNRGEC", "notes": "Ly383 HC (IgG1 mutated Fc)-Ly253 scFv VH-VL + Ly383 LC"}},
  "data": [
    {"biological_target": "T1, human CD40 expressed on CHO cells (human, UniProt P25942 21-277)", "T1 construct": "whole, on cells; also used for the reporter cells over-expressing human CD40; also called cellular CD40; CHO-CD40 cells", "T1 sequence (P25942 21-277)": "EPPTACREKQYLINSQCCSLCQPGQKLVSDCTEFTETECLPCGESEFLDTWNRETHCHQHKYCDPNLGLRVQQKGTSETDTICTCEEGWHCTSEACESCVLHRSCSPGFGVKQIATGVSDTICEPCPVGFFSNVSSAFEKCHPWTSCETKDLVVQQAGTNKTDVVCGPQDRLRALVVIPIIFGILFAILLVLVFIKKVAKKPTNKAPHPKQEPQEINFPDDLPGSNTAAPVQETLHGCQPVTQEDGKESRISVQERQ", "experiment": "FACS, CHO cells", "values": [
      {"binder": "B1", "binding result": "binds"},
      {"binder": "B2", "binding result": "binds"},
      {"binder": "B3", "binding result": "binds"},
      {"binder": "B4", "binding result": "binds"}
    ]}
  ]
}
